Experimental data: the supplement of paper PMC9170038

What follows are sequences tested on K4 kissing-loop RNA reporter (assay: apparent KD of K4 kissing-loop reporter; higher = weaker reporter binding). Settings: Eterna round: R107; input ligand: FMN 200 uM.
Procedure: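 RNA-MaP round R107: designed RNA switches with theophylline, tryptophan, arginine or FMN aptamers are transcribed on-chip within common flanks. They are titrated with a labelled K4 kissing-loop RNA reporter in RNA-MaP buffer (100 mM Tris pH 7.5, 80 mM KCl, 4 mM MgCl2), without ligand or with the indicated ligand. Median apparent KD per design.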
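Further: bound reporter read as fluorescence of individual clusters on recovered sequencing chips by microscopy, with normalized cluster intensities fitted with a binding model.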

Going from “UGGAGUUGACGAAAAGUCAACUCCCGAGAAGGAGCGGACGAAAGUCCAGGUAGGUCGCUCGCUACCAGUGAUGUUGGUACAUAAA” to “AGUACAAUGGCGGCCGCCACUCAAUGGCAGAUCAAAGAUCUGUAUCACUCAGUGAUGUUGAGUGAGAGGACCGGGCCUUUGUACA [Omei KL Tryp B SS B v9]”, the “apparent KD of K4 kissing-loop reporter” value rises from 101 nM to 604 nM (6-fold).

Going from “AUUUAGACGAGUGAUGUUCGUGUUAAUACAGAGGAUAUGCGUGAUUGCAGAAGGCUGUAUUUAUAUAUGUUAUGUGGUUUUAAAA [whbob_Ex_FMNA__2th187]” to “AAAAUAAGCCAGUGAUGUUGGUAUCCAGAUACCAGCGACGAAAGUCGCCCUUGGCAGCUGUGGACGUACAAAAUAAGUACGUCCU”, the “apparent KD of K4 kissing-loop reporter” value rises from 76.6 nM to 194 nM (2.5-fold).

Going from “AACUGUCAAGGAACUUGCAACAAAGGUGAUACCAGCAUCGAAAGAUGCCCUUGGCAGCACCAACUUGCAGUGAUGUUGCAAGUAA [(T)'-(H)'-(T1)-(T2)-(H1)-(H2)_Design7]” to “AAUUUAUUAACUGAUACCAGACUUUAAUUUAUAUAUAUGUCUAGUGAUGUUAAACAUAUUGUCCCUUGGCAGCAGUAUUUAUUAA [JR_SSTheophyB_Sub020]”, the “apparent KD of K4 kissing-loop reporter” value rises from 300 nM to 761 nM (2.5-fold).

“CGAGUGAUGUUCGAAGAGUUGUUAAGCGAUACCAGCUAGGAGACUGGCCCUUGGCAGCGUAAUAAGUUAAUAAAUAAAUGAUCAC [whbob_Ex_Theo_A_th65]” and “AAAUAGAUCAGUCAUCCAGUGAUGUUGGAAGGAGCGUGCGAAAGCACAGGUAGGUCGCCAAAAUAAAACUGGCUGAUCAAAAUAA” are within 1.5-fold of each other in “apparent KD of K4 kissing-loop reporter” value: 293 nM for the first, 292 nM for the second.

First: AUUUAGACGAGUGAUGUUCGUGUUAUUACAGAGGAUAUGCGUAAAAGCAGAAGGCUGUAUUUAUAUUUGUUAUGUAAUUUUAAAA [JR_ExcFMNA_Sub006]
Second: UUAGAAGUAUACUUCAAGAGGUAUGCUGAUACCAGAGUCAAUUGACUCCCUUGGCAGCGGAUCGAGUGAUGUUCGUAACCUCAUU [AK3.1 SS Theophylline A]
The “apparent KD of K4 kissing-loop reporter” value of the first is 2.1-fold lower: 75.2 nM for the first, 160 nM for the second.

First: CGCGCUGCCUGAGGAUAUAGAAACGAGUGAUGUUCGUGGACAAGAGCCAGUGAUGUUGGGUUAUUUCUAGAAGGCAGGCGAUCGU [Exclusion FMN B GF5]
Second: CACCUAGGUACGGCCGCCACUAGAAGUGAUGUUUCGUCUGGUUCCGCAUUACGUGUACUUUCUUAUAGGACCGGGUAGCAAAUAG [theeternabot_exclusion_KL_Trp_B_3]
The “apparent KD of K4 kissing-loop reporter” value of the first is 4.4-fold lower: 124 nM for the first, 548 nM for the second.

Going from “CGUCACACUUGAUGGUUAUCCAAUGAUGAUACCAGCCGUCGAGAUGGCCCUUGGCAGCAUGUGGUACAGUGAUGUUGUACAUUGG [theeternabot_sameState_KL_Theo_A_30]” to “UGUAUGUGAUUUGAUACCAGACCAGUUGGUGGUAUAUGAGUGAUGUUUAUGUUGGUUUGGGUCCCUUGGCAGCAAAUCGCAUACU [KL-SSTheoB11]”, the “apparent KD of K4 kissing-loop reporter” value rises from 392 nM to 591 nM (1.5-fold).

“AAAUUCUUUUUUUUAUAUAACAAUUCAGAAGGAGCGUGGUAGAACACAGGUAGGUCGCUGAAUAUAAGACUAGUGAUGUUAGUAA [JR_SSArginiA_Sub010]” and “AAGGUAUCUAGAUGCUAGCAACAACUAGAUACCAGCAUCGAAAGAUGCCCUUGGCAGCUAGCAGUGAUGUUGCUAGCAAUAAGAA [Design4]” are within 1.5-fold of each other in “apparent KD of K4 kissing-loop reporter” value: 153 nM for the first, 152 nM for the second.

“AAAACUAUCAGAAGGAGCGUGGAAUAUUCAUCUGUAUUUAAUACGAGUGAUGUUCGUAAUUCACAGGUAGGUCGCUGAUCAAUAA [whbob_Ex_Arginine_B_2th154]” and “AGACUACCACACUGUCAAUAGACAGUGUACUAGGAUAUGCUGAUAAGCAGAAGGAGUGAUGUUCCGAGGUAGUCAAUAAAAUAAU [FmnAX 13 U28+G66]” are within 1.5-fold of each other in “apparent KD of K4 kissing-loop reporter” value: 269 nM for the first, 326 nM for the second.

Going from “GUUACGCAUGGAAGGAGCGCGAUUAAAUUUAGUGAGUGAUGUUCACAAAAUAAAACUAAAACGCAGGUAGGUCGCCAUGUGUAAC [Ex Arginine B K4 2]” to “AAGUGAUGUUGUAGUGAUGUUGUGAUGUUGCAGGAUAUAUAGUGAUGUAGAAGGGUAUGUACAGAUUUUUUUUUUGAGUGAUGAU [ffdcmullin]”, the “apparent KD of K4 kissing-loop reporter” value falls from 171 nM to 83.4 nM (2.1-fold).

“GUCCAAACACAGUGAUGUUGUGAAUAUGAAGGAGCGGACGAAAGUCCAGGUAGGUCGCAUAAAGGACACCUACGAAAAGUAGGAA [#SwitchBubble 5 #K4Early]” and “UGACUGGACUGAAGGAGCGCUUAACUCCUAGUGAUGUUAGGACAACGAGACAAAGUCUCGAAGCAGGUAGGUCGCAGUCUAGUCU” are within 1.5-fold of each other in “apparent KD of K4 kissing-loop reporter” value: 172 nM for the first, 217 nM for the second.

First: UGACUGGACUGAAGGAGCGCUAAACUCCUAGUGAUGUUAGGAAAUACGAGACAAAGUCUCGGGCAGGUAGGUCGCAGUCUAGUCU [ArgBS 19 #SwitchBubble #StaticStem]
Second: AUUCUAUUGUGAAGGAGCGCGACUAGUAGUGAUGUUACUAUAUGACUUUAGUCUUAAUUCUCGCAGGUAGGUCGCACAAUAUAUA [JR_Nu_SSArginiB_Sub028]
The “apparent KD of K4 kissing-loop reporter” value of the first is 7.5-fold lower: 122 nM for the first, 913 nM for the second.

“GGUUCUGUUUUAGGUUUAGUGAUGUUGAAUCGAGGACCGGUACGGCCGCCACUCGGUGACGUCGUAACUUUGGAGGUCCUAACCA [theeternabot_exclusion_KL_Trp_A_47]” and “ACUGCCAUUGCGGCCGCCACUAUCUCACUUUGCGAAUCUGCACCGACUGAGUGAUGUUCGGUAAAUAGGACCGGGCAAUGGGCCG [theeternabot_sameState_KL_Trp_B_26]” are within 1.5-fold of each other in “apparent KD of K4 kissing-loop reporter” value: 764 nM for the first, 611 nM for the second.

First: GCCGUAGAUCGAAGGAGCGUGCAAGAAUCGUAGUGAUGUUACGGAGAGUGUCACGCCGUCGCACAGGUAGGUCGCGAUCUACGGC
Second: GGAGGGAUCUCGGCCGCCACUCAUAAGAAAUGGGCCUCAGGGAUAUAGUGAUGUUAUGUAAAGAAGAGGACCGGGAGAAAGAAGG [ExTryptoB.Dc]
The “apparent KD of K4 kissing-loop reporter” value of the first is 3.7-fold lower: 71 nM for the first, 263 nM for the second.

Going from “GGAUCCACCAGUGAUGUUGGAGAAAACUCGAAGGAUAUGACGAAAGUCAGAAGGUUGUAGACUGGACAAAGUCCGGUCGGAUCCA [FmnA 23 G30+U56]” to “AAGGGCAGGACUUCCUUGCCGGAUAGAGAUACCAGCCCAGCAAAGGGCCCUUGGCAGCUCACUGACCUCAGUGAUGUUGAGGUUC [Xebisoer]”, the “apparent KD of K4 kissing-loop reporter” value falls from 843 nM to 369 nM (2.3-fold).

Compared with “GCUACCUAUGCAGGAUAUGGUAUUACGAGUGAUGUUCGAGGCGAAUAGAGUGAUGUUCUAUUUCCACCAGAAGGGCAUAGGUAGC”, “UAUUAAUUGUCAGGAUAUCGAAAUCGAGUGAUGUUCGUAUAUCGACGAUAGUCGAUAUUAUUUAUACGAGAAGGGACAUUAUUUA [JR_SSFMNB_Sub003]” is 2.4-fold higher in “apparent KD of K4 kissing-loop reporter” value: 143 nM for the first, 347 nM for the second.

“UCCUAGGCUCGAAAGAGCCUAGGUAAGACUCAGGAUAUCUGGAAACAGAGAAGGGAGCUACUAGUGAUGUUAGGAAUUCCCUAAG” was tested, and the “apparent KD of K4 kissing-loop reporter” value was 126 nM.

Same assay, conditions: Eterna round: R107; input ligand: arginine 13.2 mM

First: UGGAGUUGACGAAAAGUCAACUCCCGAGAAGGAGCGGACGAAAGUCCAGGUAGGUCGCUCGCUACCAGUGAUGUUGGUACAUAAA
Second: AGUACAAUGGCGGCCGCCACUCAAUGGCAGAUCAAAGAUCUGUAUCACUCAGUGAUGUUGAGUGAGAGGACCGGGCCUUUGUACA [Omei KL Tryp B SS B v9]
The “apparent KD of K4 kissing-loop reporter” value of the first is 3.1-fold lower: 153 nM for the first, 477 nM for the second.

“AUUUAGACGAGUGAUGUUCGUGUUAAUACAGAGGAUAUGCGUGAUUGCAGAAGGCUGUAUUUAUAUAUGUUAUGUGGUUUUAAAA [whbob_Ex_FMNA__2th187]” and “AAAAUAAGCCAGUGAUGUUGGUAUCCAGAUACCAGCGACGAAAGUCGCCCUUGGCAGCUGUGGACGUACAAAAUAAGUACGUCCU” are within 1.5-fold of each other in “apparent KD of K4 kissing-loop reporter” value: 115 nM for the first, 107 nM for the second.

First: AACUGUCAAGGAACUUGCAACAAAGGUGAUACCAGCAUCGAAAGAUGCCCUUGGCAGCACCAACUUGCAGUGAUGUUGCAAGUAA [(T)'-(H)'-(T1)-(T2)-(H1)-(H2)_Design7]
Second: AAUUUAUUAACUGAUACCAGACUUUAAUUUAUAUAUAUGUCUAGUGAUGUUAAACAUAUUGUCCCUUGGCAGCAGUAUUUAUUAA [JR_SSTheophyB_Sub020]
The “apparent KD of K4 kissing-loop reporter” value of the first is 1.6-fold lower: 243 nM for the first, 399 nM for the second.

“CGAGUGAUGUUCGAAGAGUUGUUAAGCGAUACCAGCUAGGAGACUGGCCCUUGGCAGCGUAAUAAGUUAAUAAAUAAAUGAUCAC [whbob_Ex_Theo_A_th65]” and “AAAUAGAUCAGUCAUCCAGUGAUGUUGGAAGGAGCGUGCGAAAGCACAGGUAGGUCGCCAAAAUAAAACUGGCUGAUCAAAAUAA” are within 1.5-fold of each other in “apparent KD of K4 kissing-loop reporter” value: 384 nM for the first, 292 nM for the second.
